Laboratory results reported in patent US20240166768A1 (YEDA RESEARCH AND DEVELOPMENT, published 2024).

Key:
[1] = molecular target: T1, BSA (bovine, UniProt P02769); experiment: dose-response ELISA, O.D. 630
Procedure: ELISA reactions were carried out using flat-bottom MaxiSorp™ 96-well plates (Invitrogen). Antigen coating was performed in PBS at 1001 per well and left overnight at 4° C. For standard dose response ELISA assays, antigens were plated at a concentration of 1 μg/ml. For comparative ELISA assays with multiple antigen targets, antigens were plated at a constant molar concentration of 50 nM. The plates were washed 5 times with washing buffer (1×PBS with 0.05% Tween-20 (Sigma-Aldrich)) and incubated with 1001 blocking buffer (1×PBS with 1% BSA) for 1 h at room temperature. The blocking solution was subsequently replaced by serial dilutions of either mono- or polyclonal antibodies or serum samples for 2.5 h at RT. For standard dose response ELISA assays, antibodies were introduced over a range of dilutions whereas for ELISA screens, antibodies were introduced at 100 nM. Serum samples were assayed at a dilution of 1:100. Plates were washed 5 times with washing buffer and then incubated with anti-human IgG secondary antibody conjugated to horseradish peroxidase (HRP) (Jackson Immuno Research) in PBS at a 1:5,000 dilution. After washing the plates for additional 5 times, the plates were developed using TMB (Thermo Fisher) and absorbance was measured at 630 nm with an ELISA microplate reader (Synergy HTX plate reader, Biotek). […]

[2] = molecular target: T1, BSA; experiment: ELISA heatmap, OD630
Procedure: ELISA reactions were carried out using flat-bottom MaxiSorp™ 96-well plates (Invitrogen). Antigen coating was performed in PBS at 1001 per well and left overnight at 4° C. For standard dose response ELISA assays, antigens were plated at a concentration of 1 μg/ml. For comparative ELISA assays with multiple antigen targets, antigens were plated at a constant molar concentration of 50 nM. The plates were washed 5 times with washing buffer (1×PBS with 0.05% Tween-20 (Sigma-Aldrich)) and incubated with 1001 blocking buffer (1×PBS with 1% BSA) for 1 h at room temperature. The blocking solution was subsequently replaced by serial dilutions of either mono- or polyclonal antibodies or serum samples for 2.5 h at RT. For standard dose response ELISA assays, antibodies were introduced over a range of dilutions whereas for ELISA screens, antibodies were introduced at 100 nM. Serum samples were assayed at a dilution of 1:100. Plates were washed 5 times with washing buffer and then incubated with anti-human IgG secondary antibody conjugated to horseradish peroxidase (HRP) (Jackson Immuno Research) in PBS at a 1:5,000 dilution. After washing the plates for additional 5 times, the plates were developed using TMB (Thermo Fisher) and absorbance was measured at 630 nm with an ELISA microplate reader (Synergy HTX plate reader, Biotek).
Strikingly, in 3/4 patients, monoclonal antibodies that bound MMP14 with various degrees of effectiveness and specificity were detected, confirming the analysis using polyclonal patient-derived antibodies. In order to further examine the specificity of the monoclonal antibodies, the binding activity of the antibodies was tested in different dilutions by ELISA.

[3] = molecular target: T2, ROI-1 peptide of MMP14 (I-A loop); experiment: peptide validation ELISA: antibody plated, biotinylated peptide titrated, streptavidin-HRP; the concentration is that of the peptide
T2 construct: also called 'ROI-peptide'; 'Peptide (ROI)'

T1 sequence (P02769 25-607 limits assumed): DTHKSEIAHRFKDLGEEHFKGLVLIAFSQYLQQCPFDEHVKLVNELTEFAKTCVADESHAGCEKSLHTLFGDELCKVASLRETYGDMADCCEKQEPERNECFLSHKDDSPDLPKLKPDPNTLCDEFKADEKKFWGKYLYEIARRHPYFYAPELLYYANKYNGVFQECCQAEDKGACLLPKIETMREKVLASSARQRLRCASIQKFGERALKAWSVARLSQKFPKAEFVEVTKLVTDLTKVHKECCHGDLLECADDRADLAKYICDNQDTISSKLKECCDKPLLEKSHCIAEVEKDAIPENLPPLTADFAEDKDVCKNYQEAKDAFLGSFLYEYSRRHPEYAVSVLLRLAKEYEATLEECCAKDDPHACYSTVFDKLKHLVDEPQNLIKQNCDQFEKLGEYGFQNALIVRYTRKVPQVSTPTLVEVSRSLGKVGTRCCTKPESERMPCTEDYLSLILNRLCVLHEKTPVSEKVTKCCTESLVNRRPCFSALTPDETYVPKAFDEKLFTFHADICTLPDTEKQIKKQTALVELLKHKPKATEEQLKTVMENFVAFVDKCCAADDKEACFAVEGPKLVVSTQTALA

Binder | binding result [2] | EC50 (read off the curve) [3] | also measured
T13-GL (antibody, human IgG1, V domains shown, also called germline version of T13) VH: EVQLVESGGGLVQPGGSLRLSCAASGFTFSSYDMHWVRQATGKGLEWVSAIGTAGDTYYPGSVKGRFTISRENAKNSLYLQMNSLRAGDTAVYYCARGIAVAGFPLDVWGKGTTVTVSS VL: not shown | – | – | binding result [1]: no binding (tested: about 500 nM)
T26 (antibody, V domains shown) VH: QVQLVQSGSEVKKPGASVKVSCKASGYTFTSNGISWVRQAPGQGLEWMGWISAYNGNTNYAQKFQGRVSLTTDTSTSTAYMELRNLTSDDTARYYCARSRGHYGDYLYGYWGQGTLVTVSS VL: QSVLTQPPSVSGAPGQRVTISCTGSSSNIGAGYDVHWYQQLPGTAPKLLIHGNSNRPSGVPDRFSGSKSGTSASLAITGLQAEDEADYYCQSFDSSLSGSVVFGGGTKLTVL | no binding (tested: 100 nM) | – | –
T12 (antibody, human IgG1, V domains shown) VH: EVQLVESGGGLVQPGGSLRLSCAASGFTFNNHDMHWVRQVTGKGLEWVSSIGNFGDTYYSGSVKGRFTISRQDAKNSLYLQMNRLRVGDTAVYYCARGRAVAGNPLDVWGKGTTVTVSS VL: EIVMTQSPATLSVSPGETATLSCRANQTLYNNLAWYQQKPGQAPRLLIYSGSTRATGIPARFSGSGSGTEFSLTISSLQSEDFAVYYCQHYTPWPPYTFGQGTKVDFK | – | ~4 µg/mL | –
T17 (antibody, V domains shown) VH: EVQLVESGGGLVQPGGSLTLSCTASGFTYFGFAMTWVRQPPGKGLEWISSINLLSGTTYYVDSVKGRFTISRDNSKNTVFLQMKGLTAEDTAVYYCAKVGATQDLHYFDFWGQGTLVTVSS VL: DIQMTQSPSTLSASVGDRVTITCRASQSVYRWLAWYQQKPGEAPKLLVYGAFSLQSGVPPRFSGSGYGTEFTLTISSLQPDDFATYYCQQYNSHSTFGQGTKVEVK | no binding (tested: 100 nM) | – | –
T22 (antibody, V domains shown) VH: QVQLVQSGAEVKKPGSSVKVACKASGGTFSRSAISWVRQAPGQGLEWMGGIIRIFNTADYAQKFQGRVTMSADESTSTAYMELSSLRSEDTAVYYCATSSLSDIVVAEGAFVDHYFGMDVWGQGTTVTVSS VL: not shown | no binding (tested: 100 nM) | – | –
T13 (antibody, V domains shown, The digit 1 is dropped in many places of the text; also called mAb T13) VH: EVQLVESGGGLVQPGGSLRLSCAASGFIFSKHDMYWVRQRPGKGLEWVSRIGDAGDTYYAGSVKGRFTIFRENAKNTLYFQMNRLTDGDTAVYYCGRGMAVAGFPLDVWGRGTRVTVTS VL: EIVMTQSPATLSVSPGERATLSCRASQNIHINLAWYQQKPGQAPRLIIYAASTRAAGIPARFSASGSGTEFTLTISSLQSEDFAVYYCQQFNPWSPWTFGQGTKVEVK | – | ~2 µg/mL | –
